T1: μ1A (AP1M1) expressed from cDNA in COS-7 cells, Q9BXS5
T1 chain: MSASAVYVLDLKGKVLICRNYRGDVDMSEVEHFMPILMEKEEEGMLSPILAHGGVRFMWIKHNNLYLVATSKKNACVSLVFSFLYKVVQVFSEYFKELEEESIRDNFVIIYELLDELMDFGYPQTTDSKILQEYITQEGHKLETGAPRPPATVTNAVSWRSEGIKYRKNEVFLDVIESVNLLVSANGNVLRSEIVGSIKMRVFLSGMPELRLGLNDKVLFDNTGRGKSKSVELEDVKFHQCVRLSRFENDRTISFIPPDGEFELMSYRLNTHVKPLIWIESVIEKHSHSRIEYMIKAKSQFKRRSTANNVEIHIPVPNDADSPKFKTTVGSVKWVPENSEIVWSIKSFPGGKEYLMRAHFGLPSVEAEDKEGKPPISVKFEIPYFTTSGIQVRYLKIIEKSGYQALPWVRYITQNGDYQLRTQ


Target: T1, μ1A (AP1M1) expressed from cDNA in …
Assay: co-immunoprecipitation with Western blot quantification
Settings: chain shown with the change; COS-7 cells cotransfected with hNIS and μ1A; IP α-μ1A, WB α-hNIS; parent: est. 100; read off a plot

Binder | percent of parent (% Relative to hNIS WT)
wild-type human sodium/iodide symporter (hNIS), Q92911 L562A; L563A (protein) MEAVETGERPTFGAWDYGVFALMLLVSTGIGLWVGLARGGQRSAEDFFTGGRRLAALPVGLSLSASFMSAVQVLGVPSEAYRYGLKFLWMCLGQLLNSVLTALLFMPVFYRLGLTSTYEYLEMRFSRAVRLCGTLQYIVATMLYTGIVIYAPALILNQVTGLDIWASLLSTGIICTFYTAVGGMKAVVWTDVFQVVVMLSGFWVVLARGVMLVGGPRQVLTLAQNHSRINLMDFNPDPRSRYTFWTFVVGGTLVWLSMYGVNQAQVQRYVACRTEKQAKLALLINQVGLFLIVSSAACCGIVMFVFYTDCDPLLLGRISAPDQYMPLLVLDIFEDLPGVPGLFLACAYSGTLSTASTSINAMAAVTVEDLIKPRLRSLAPRKLVIISKGLSLIYGSACLTVAALSSLLGGGVLQGSFTVMGVISGPLLGAFILGMFLPACNTPGVLAGLGAGLALSLWVALGATLYPPSEQTMRVLPSSAARCVALSVNASGLLDPALLPANDSSRAPSSGMDASRPALADSFYAISYLYYGALGTLTTVLCGALISCLTGPTKRSTLAPGAAWWDLARQTASVAPKEEVAILDDNLVKGPEELPTGNKKPPGFLPTNEDRLFFLGQKELEGAGSWTPCVGHDGGRDQQETNL | 9
wild-type human sodium/iodide symporter (hNIS), Q92911 Y120A (protein) MEAVETGERPTFGAWDYGVFALMLLVSTGIGLWVGLARGGQRSAEDFFTGGRRLAALPVGLSLSASFMSAVQVLGVPSEAYRYGLKFLWMCLGQLLNSVLTALLFMPVFYRLGLTSTYEALEMRFSRAVRLCGTLQYIVATMLYTGIVIYAPALILNQVTGLDIWASLLSTGIICTFYTAVGGMKAVVWTDVFQVVVMLSGFWVVLARGVMLVGGPRQVLTLAQNHSRINLMDFNPDPRSRYTFWTFVVGGTLVWLSMYGVNQAQVQRYVACRTEKQAKLALLINQVGLFLIVSSAACCGIVMFVFYTDCDPLLLGRISAPDQYMPLLVLDIFEDLPGVPGLFLACAYSGTLSTASTSINAMAAVTVEDLIKPRLRSLAPRKLVIISKGLSLIYGSACLTVAALSSLLGGGVLQGSFTVMGVISGPLLGAFILGMFLPACNTPGVLAGLGAGLALSLWVALGATLYPPSEQTMRVLPSSAARCVALSVNASGLLDPALLPANDSSRAPSSGMDASRPALADSFYAISYLYYGALGTLTTVLCGALISCLTGPTKRSTLAPGLLWWDLARQTASVAPKEEVAILDDNLVKGPEELPTGNKKPPGFLPTNEDRLFFLGQKELEGAGSWTPCVGHDGGRDQQETNL | 65
wild-type human sodium/iodide symporter (hNIS), Q92911 L583A (protein) MEAVETGERPTFGAWDYGVFALMLLVSTGIGLWVGLARGGQRSAEDFFTGGRRLAALPVGLSLSASFMSAVQVLGVPSEAYRYGLKFLWMCLGQLLNSVLTALLFMPVFYRLGLTSTYEYLEMRFSRAVRLCGTLQYIVATMLYTGIVIYAPALILNQVTGLDIWASLLSTGIICTFYTAVGGMKAVVWTDVFQVVVMLSGFWVVLARGVMLVGGPRQVLTLAQNHSRINLMDFNPDPRSRYTFWTFVVGGTLVWLSMYGVNQAQVQRYVACRTEKQAKLALLINQVGLFLIVSSAACCGIVMFVFYTDCDPLLLGRISAPDQYMPLLVLDIFEDLPGVPGLFLACAYSGTLSTASTSINAMAAVTVEDLIKPRLRSLAPRKLVIISKGLSLIYGSACLTVAALSSLLGGGVLQGSFTVMGVISGPLLGAFILGMFLPACNTPGVLAGLGAGLALSLWVALGATLYPPSEQTMRVLPSSAARCVALSVNASGLLDPALLPANDSSRAPSSGMDASRPALADSFYAISYLYYGALGTLTTVLCGALISCLTGPTKRSTLAPGLLWWDLARQTASVAPKEEVAIADDNLVKGPEELPTGNKKPPGFLPTNEDRLFFLGQKELEGAGSWTPCVGHDGGRDQQETNL | 60
wild-type human sodium/iodide symporter (hNIS), Q92911 L121A (protein) MEAVETGERPTFGAWDYGVFALMLLVSTGIGLWVGLARGGQRSAEDFFTGGRRLAALPVGLSLSASFMSAVQVLGVPSEAYRYGLKFLWMCLGQLLNSVLTALLFMPVFYRLGLTSTYEYAEMRFSRAVRLCGTLQYIVATMLYTGIVIYAPALILNQVTGLDIWASLLSTGIICTFYTAVGGMKAVVWTDVFQVVVMLSGFWVVLARGVMLVGGPRQVLTLAQNHSRINLMDFNPDPRSRYTFWTFVVGGTLVWLSMYGVNQAQVQRYVACRTEKQAKLALLINQVGLFLIVSSAACCGIVMFVFYTDCDPLLLGRISAPDQYMPLLVLDIFEDLPGVPGLFLACAYSGTLSTASTSINAMAAVTVEDLIKPRLRSLAPRKLVIISKGLSLIYGSACLTVAALSSLLGGGVLQGSFTVMGVISGPLLGAFILGMFLPACNTPGVLAGLGAGLALSLWVALGATLYPPSEQTMRVLPSSAARCVALSVNASGLLDPALLPANDSSRAPSSGMDASRPALADSFYAISYLYYGALGTLTTVLCGALISCLTGPTKRSTLAPGLLWWDLARQTASVAPKEEVAILDDNLVKGPEELPTGNKKPPGFLPTNEDRLFFLGQKELEGAGSWTPCVGHDGGRDQQETNL | 17
wild-type human sodium/iodide symporter (hNIS), Q92911 L587A (protein) MEAVETGERPTFGAWDYGVFALMLLVSTGIGLWVGLARGGQRSAEDFFTGGRRLAALPVGLSLSASFMSAVQVLGVPSEAYRYGLKFLWMCLGQLLNSVLTALLFMPVFYRLGLTSTYEYLEMRFSRAVRLCGTLQYIVATMLYTGIVIYAPALILNQVTGLDIWASLLSTGIICTFYTAVGGMKAVVWTDVFQVVVMLSGFWVVLARGVMLVGGPRQVLTLAQNHSRINLMDFNPDPRSRYTFWTFVVGGTLVWLSMYGVNQAQVQRYVACRTEKQAKLALLINQVGLFLIVSSAACCGIVMFVFYTDCDPLLLGRISAPDQYMPLLVLDIFEDLPGVPGLFLACAYSGTLSTASTSINAMAAVTVEDLIKPRLRSLAPRKLVIISKGLSLIYGSACLTVAALSSLLGGGVLQGSFTVMGVISGPLLGAFILGMFLPACNTPGVLAGLGAGLALSLWVALGATLYPPSEQTMRVLPSSAARCVALSVNASGLLDPALLPANDSSRAPSSGMDASRPALADSFYAISYLYYGALGTLTTVLCGALISCLTGPTKRSTLAPGLLWWDLARQTASVAPKEEVAILDDNAVKGPEELPTGNKKPPGFLPTNEDRLFFLGQKELEGAGSWTPCVGHDGGRDQQETNL | 100
wild-type human sodium/iodide symporter (hNIS), Q92911 L594A (protein) MEAVETGERPTFGAWDYGVFALMLLVSTGIGLWVGLARGGQRSAEDFFTGGRRLAALPVGLSLSASFMSAVQVLGVPSEAYRYGLKFLWMCLGQLLNSVLTALLFMPVFYRLGLTSTYEYLEMRFSRAVRLCGTLQYIVATMLYTGIVIYAPALILNQVTGLDIWASLLSTGIICTFYTAVGGMKAVVWTDVFQVVVMLSGFWVVLARGVMLVGGPRQVLTLAQNHSRINLMDFNPDPRSRYTFWTFVVGGTLVWLSMYGVNQAQVQRYVACRTEKQAKLALLINQVGLFLIVSSAACCGIVMFVFYTDCDPLLLGRISAPDQYMPLLVLDIFEDLPGVPGLFLACAYSGTLSTASTSINAMAAVTVEDLIKPRLRSLAPRKLVIISKGLSLIYGSACLTVAALSSLLGGGVLQGSFTVMGVISGPLLGAFILGMFLPACNTPGVLAGLGAGLALSLWVALGATLYPPSEQTMRVLPSSAARCVALSVNASGLLDPALLPANDSSRAPSSGMDASRPALADSFYAISYLYYGALGTLTTVLCGALISCLTGPTKRSTLAPGLLWWDLARQTASVAPKEEVAILDDNLVKGPEEAPTGNKKPPGFLPTNEDRLFFLGQKELEGAGSWTPCVGHDGGRDQQETNL | 100
wild-type human sodium/iodide symporter (hNIS), Q92911 Y118A (protein) MEAVETGERPTFGAWDYGVFALMLLVSTGIGLWVGLARGGQRSAEDFFTGGRRLAALPVGLSLSASFMSAVQVLGVPSEAYRYGLKFLWMCLGQLLNSVLTALLFMPVFYRLGLTSTAEYLEMRFSRAVRLCGTLQYIVATMLYTGIVIYAPALILNQVTGLDIWASLLSTGIICTFYTAVGGMKAVVWTDVFQVVVMLSGFWVVLARGVMLVGGPRQVLTLAQNHSRINLMDFNPDPRSRYTFWTFVVGGTLVWLSMYGVNQAQVQRYVACRTEKQAKLALLINQVGLFLIVSSAACCGIVMFVFYTDCDPLLLGRISAPDQYMPLLVLDIFEDLPGVPGLFLACAYSGTLSTASTSINAMAAVTVEDLIKPRLRSLAPRKLVIISKGLSLIYGSACLTVAALSSLLGGGVLQGSFTVMGVISGPLLGAFILGMFLPACNTPGVLAGLGAGLALSLWVALGATLYPPSEQTMRVLPSSAARCVALSVNASGLLDPALLPANDSSRAPSSGMDASRPALADSFYAISYLYYGALGTLTTVLCGALISCLTGPTKRSTLAPGLLWWDLARQTASVAPKEEVAILDDNLVKGPEELPTGNKKPPGFLPTNEDRLFFLGQKELEGAGSWTPCVGHDGGRDQQETNL | 80

— publication PMC9618391 (2022)
